Reference: article PMC9521928

Target: CPXV14-His (His-tagged recombinant cowpox virus Brighton Red CPXV14) (cowpox virus (Brighton Red strain))
Assay: BLI; […] (10 μg/mL, 2 min), […]; PBS pH 7.4, 0.005% Tween-20; 25°C; steady-state fit, 1:1 binding model; […]

Work on “soluble recombinant murine FcγRIIB (mCD32B) ectodomain (from UniProt P08101 30-210) (receptor)” yielded a Kd of 3.6 nM.
